Results as given in IntAct's records for PubMed 21059944.

B1: Tumor necrosis factor receptor superfamily member 11A (Mus musculus), O35305 (parent)
chain: MAPRARRRRQLPAPLLALCVLLVPLQVTLQVTPPCTQERHYEHLGRCCSRCEPGKYLSSKCTPTSDSVCLPCGPDEYLDTWNEEDKCLLHKVCDAGKALVAVDPGNHTAPRRCACTAGYHWNSDCECCRRNTECAPGFGAQHPLQLNKDTVCTPCLLGFFSDVFSSTDKCKPWTNCTLLGKLEAHQGTTESDVVCSSSMTLRRPPKEAQAYLPSLIVLLLFISVVVVAAIIFGVYYRKGGKALTANLWNWVNDACSSLSGNKESSGDRCAGSHSATSSQQEVCEGILLMTREEKMVPEDGAGVCGPVCAAGGPWAEVRDSRTFTLVSEVETQGDLSRKIPTEDEYTDRPSQPSTGSLLLIQQGSKSIPPFQEPLEVGENDSLSQCFTGTESTVDSEGCDFTEPPSRTDSMPVSPEKHLTKEIEGDSCLPWVVSSNSTDGYTGSGNTPGEDHEPFPGSLKCGPLPQCAYSMGFPSEAAASMAEAGVRPQDRADERGASGSGSSPSDQPPASGNVTGNSNSTFISSGQVMNFKGDIIVVYVSQTSQEGPGSAEPESEPVGRPVQEETLAHRDSFAGTAPRFPDVCATGAGLQEQGAPRQKDGTSRPVQEQGGAQTSLHTQGSGQCAE

Variants of: B1
Details: with Tnfsf11, O35235-1
Chain of Tnfsf11, O35235-1 (O35235 whole entry): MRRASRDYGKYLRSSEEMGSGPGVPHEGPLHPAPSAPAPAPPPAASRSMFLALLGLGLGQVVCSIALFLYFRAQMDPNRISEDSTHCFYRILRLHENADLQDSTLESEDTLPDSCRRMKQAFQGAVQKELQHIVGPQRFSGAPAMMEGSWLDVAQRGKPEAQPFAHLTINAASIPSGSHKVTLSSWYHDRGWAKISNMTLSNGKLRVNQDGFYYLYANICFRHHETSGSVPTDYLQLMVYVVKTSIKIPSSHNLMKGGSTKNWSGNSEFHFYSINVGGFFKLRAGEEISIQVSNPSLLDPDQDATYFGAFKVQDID

Question: K171G was tested. Which “effect of a mutation on the interaction” value did it give?
Answer: disrupting interaction

Question: With D85A as the variant, how does the “effect of a mutation on the interaction” value read?
Answer: decreasing interaction

Question: Which “effect of a mutation on the interaction” value does the source give for K97A here?
Answer: disrupting interaction

Question: For E126A, which “effect of a mutation on the interaction” value is on record?
Answer: disrupting interaction

Question: With G54R as the variant, how does the “effect of a mutation on the interaction” value read?
Answer: disrupting interaction

Question: C127A was tested. Which “effect of a mutation on the interaction” value did it give?
Answer: disrupting interaction
